Target: T1, recombinant SARS-CoV-2 S1 protein expressed from insect (Sf9) cells (S1-His, SinoBiological, Cat. No. … (SARS-CoV-2, UniProt P0DTC2 16-685, glycosylated by insect cells))
T1 construct: also called 51-His (as misprinted)
Assay: ELISA, coated insect-cell S1-His, HRP-conjugated lectin 10 ug/mL

Row | Binder | mean fold increase of OD450
1 | Maackia amurensis lectin (MAA) (other) SDELSFTINNFVPNEADLLFQGEASVSSTGVLQLTRVENGQPQKYSVGRALYAAPVRIWDNTTGSVASFSTSFTFVVKAPNPDITSDGLAFYLAPPDSQIPSGSVSKYLGLFNNSNSDSSNQIVAVELDTYFAHSYDPWDPNYRHIGIDVNGIESIKTVQWDWINGGVAFATITYLAPNKTLIASLVYPSNQTTFSVAASVDLKEILPEWVRVGFSAATGYPTEVETHDVLSWSFTSTLEANCDAATEN | 4.3 fold
2 | Vicia villosa lectin (VVA) (other) SESTSFSFTNFNPNQENLILQEDALVNSKGTLELTKNGKPVPESLGRNCTTLASFTTSFSFVMSAPNSLDVADGLAFFLAPPDTQPQKRGGFLGLFKDRKHDISYQSVAVEFDTYSNVWDPNTTHIGIDTNTIESKKITPFDMVYGEKILFASLVFPVSQDILPEYVRVGFSATTGLNEGVVETH | 22.5 fold

— US20210085770A1 (KORANEX CAPITAL, published 2021)
